This assay concerns TCF/LEF response elements. As to the kind of experiment: TOPflash luciferase reporter system (TCF/LEF response elements) in UMR-106 cells. The class given is cell-based, rat. The source says: We transiently infected UMR-106 cells (a rat sarcoma derived cell line) with a luciferase reporter system TOPflash containing 8 TCF/LEF response elements placed in the promoter region of the luciferase reporter gene.
To investigate the effect of secreted signals from osteoclasts we collected conditioned medium from osteoclasts cultured either on bone or on plastic, and compared their ability to induce activation of cells transiently transfected with the TCF/LEF reporter system to that of non-conditioned osteoclast culture medium. The cells were then treated for 24 hours with either control compounds, vehicle or the different conditioned media, after which the cells were lysed and the Luciferase activity was measured by a […] assay.
(A reporter such as luciferase makes a cellular process visible.)

We go through 2 molecules from US20100093014A1, “SCREENING FOR BONE ANABOLIC FACTORS” (NORDIC BIOSCIENCE IMAGING A/S, priority 2007, published 2010).

B1: Wnt3A: positive control for the TCF/LEF luciferase reporter (protein, UniProt P56704 19-352, looked up)
Protein Wnt-3a: SYPIWWSLAVGPQYSSLGSQPILCASIPGLVPKQLRFCRNYVEIMPSVAEGIKIGIQECQHQFRGRRWNCTTVHDSLAIFGPVLDKATRESAFVHAIASAGVAFAVTRSCAEGTAAICGCSSRHQGSPGKGWKWGGCSEDIEFGGMVSREFADARENRPDARSAMNRHNNEAGRQAIASHMHLKCKCHGLSGSCEVKTCWWSQPDFRAIGDFLKDKYDSASEMVVEKHRESRGWVETLRPRYTYFKVPTERDLVYYEASPNFCEPNPETGSFGTRDRTCNVSSHGIDGCDLLCCGRGHNARAERRREKCRCVFHWCCYVSCQECTRVYDVHTCK
As for B1, the “TCF/LEF activation (luciferase activity)” value (treated for 24 hours) was “induces a strong activation”.

B2: DKK1: Wnt inhibitor (protein, UniProt O94907 32-266, looked up)
Dickkopf-related protein 1: TLNSVLNSNAIKNLPPPLGGAAGHPGSAVSAAPGILYPGGNKYQTIDNYQPYPCAEDEECGTDEYCASPTRGGDAGVQICLACRKRRKRCMRHAMCCPGNYCKNGICVSSDQNHFRGEIEETITESFGNDHSTLDGYSRRTTLSSKMYHTKGQEGSVCLRSSDCASGLCCARHFWSKICKPVLKEGQVCTKHRRKGSHGLEIFQRCYCGEGLSCRIQKDHHQASNSSRLHTCQRH
Regarding B2, where the note is “24 hours”, the “inhibition of TCF/LEF activation induced by conditioned medium from osteoclasts on bone” value is given as “inhibited” and the “inhibition of TCF/LEF activation induced by signal from non-resorbing osteoclasts on plastic” value was “again was inhibited”. Moreover, the “inhibition of Wnt3A-induced TCF/LEF activation” value (activation by Wnt3A) is on record as “inhibits this activation”.
